Source: the DeepSol protein solubility set

Assay: soluble on expression in E. coli; label from the status in PepcDB or PDB records
In the case of “MGSDKIHHHHHHMWIWQQADWPKFHWNTSSIDALLRQVYFNQGQLLGKQMLSHDDSLLTSDAALDTLLANIIHSSAIEGEKLNAASVRSSLAKKLGVTEDKPYPTTAQTDGLADIMLDALKNLETELTLERILGWHQQLFPQGYTLFNPVIGGTLRGDTPMQVVSGRIDKPTVHFEAPSRATLDAELSQFIEWFNASRQDLGLDPLIRAAITHLWFVTLHPLDDGNGRITRLLTDLALAQAEKRSIRFYAMSVSILARRQAYYDILESTQRGDVDITPWLVWFFETLNDCLLNAMADVSRTLSKTQYWQSVDQSLLSQEQAKVLNRMLDGDFELGINSSQYQKVAKVSRATATRHLAQMVEQRFLVKADAGGRSTRYLLPSGK”, the “soluble on expression in E. coli” value is reported as “not soluble”. In the case of “MGSDKIHHHHHHMWTPDALSSEVRPYRQDVWRVVEAQSRASTMRLVDSLEEQRLLEDLIDEVKPPVPPSCRQFHYLLSTPFRYGPYPTGSRFRRAGQQDGVFYASESVETAIAELAFYRLLFFVESPGTDLPARPTDHMAFSVPCVADRLIDLTLPPLAQDEAKWVNRLDYTACQDLADIARSARIEAIRYRSVRDPDGGCNLGVLTPAALGATKPQRLETWRLFIRPTGIQVAREFPRAEREFTCADFGADPRLDPFWIRP”, the “soluble on expression in E. coli” value is reported as “not soluble”. For “MGSDKIHHHHHHMYLALIGDIINSKQILERETFQQSFQQLMTELSDVYGEELISPFTITAGDEFQALLKPSKKVFQIIDHIQLALKPVNVRFGLGTGNIITSINSNESIGADGPAYWHARSAINHIHDKNDYGTVQVAICLDDEDQNLELTLNSLISAGDFIKSKWTTNHFQMLEHLILQDNYQEQFQHQKLAQLENIEPSALTKRLKASGLKIYLRTRTQAADLLVKSCTQTKGGSYDF”, the “soluble on expression in E. coli” value was “not soluble”. In the case of “MGSDKIHHHHHHMYLESIELYSNITKAAAHLFISQPYLSKVIKQLENELEIKLIQSQGHQTFLTYAGQRYLFYLKEIDMIERQMAKELYLIRSDKKGEITLGINSGLASSILANVLPKFNLEHPEISVKLLENNQNISEQLVASGDIDLAVGMAPILYKDGIASTTIYRDELFLMIPTTSQLYNAEKRGQIIPFEYPISVLDNEPLILTPLEYGIGKTIAQFYELHHMSLNQMITTSTVPTAASLSLSGMGATFVPQTLIHRYLDKECNVYHFHKNKLFSEYIMIYKKDVELSGIALLLYKAFLTK”, the “soluble on expression in E. coli” value is reported as “not soluble”. In the case of “MGSDKIHHHHHHMYPFVDRKEELKALKERLTRENFELIVIYGRRRVGKTRLVLEAVRDLPHVYYLAVEGNNLRHFRETAERVFPEVRYSREDWEGTLHALKGKIIVIDEFPNLIKENPRVLSLFQRVIDLDLSNSNTKMILLGSSVSMMTEKVLSYKSPLYGRRTGSMKLKPMGFFSLRVFFPTASWEELVEIYGMTDGIPFYITQVKLPFWEWLEEELSSPVSFFRDEVDFLLKYEFSEVSTYKRILEAIALGKTTPKEIRDFTGLRHSDISPYLRNLIEADLIVREVPVTEKGTSKRGRYYIADNFLAFWFRFIFPNLSRIEEGTFSVEEIRDSYDHYLGLVFEKVARQFLVKLNKAGNLPFKFTKIGRWWHKNEEIDLVALNEREKRALFVEVKWKSLSGREARGILWDLERKSELVGLEGWEKHYGLVAKEIRNKNALKSEGWLVWDLGDFERLISPGEISYL”, the “soluble on expression in E. coli” value is reported as “not soluble”. With “MGSDKIHHHHHHNENPDKPTDDVNYNMNEPRLASTLRGGLIIEGNVEQRLKPLQIDFYSQMTVDGGGWGTKNYIQDDEWNNLVWEEYLKQIASINIVIRSLTEKDKDAYANTIAFARIWRVYVHTLAADKFGPMPFPAYEIVEANPPYKSLKDIYDEYFRELDAAINGFNDSAQPIFSDAGIDLIYKNDVSKWKRFANSLRLRLAVRLTEVDQEKCIAEANAAISSPAGLISDKADNAYMPPKADGSWGQDYNYTMFQITWSGPICMSKSVEKLVTNIGGVAWPQGVVNQTSGVAVSSVHPEKVDPRAPKIFQPGIENGDWKGLVYGPKAEEANTGIYQSKQCAELGFIIKDGYPYKSRPYDLFLSEEVHFLKAELYARGFIAGDAKSEYEAGVRASFATWGVTSEVDDYLTSTEKNEAGTSARYDDQQGAGNTALEKIITQKYIAGIPDLAQEGWNDKRRLNLPRLDVAVYRDQAVYNNNDKDILKSANFIKRMRYPTKESLINATEYEKGKSMLGGKGDIVSTPLWWDKNSNYCTSSK” the “soluble on expression in E. coli” value was “not soluble”. For “MGSDKIHHHHHHNKIPTTMAFRTVTDVDNAVNGLYDLMSGSGYYGAAMFAYGDMKGDDMQSSEESGVCNTCYMFNHRPNSLNAGSLWGRPFYILREAWNILNAIAEGKIESGDEKKLNALKGETMAVIALCQFDLTRCFGYPYTKDKGASLGAPLIDHLVGTYENPPRSTVAQAYDFIIETLEEAVTLMSEEKNNGRMNKYAARALLARIYLYHDDNRKAFDLADQLIKDADTSGSYALYPHEKYVAAWSVEAKFGSESFFEIANSVDDTPGRDSWGYLLNWYGYQKGFVTQKYAEQMLADPGDVRGHLLEENKYAGKTVWWLYKLRGTDLKTAPLECNNVVLRLSEVYLIAAEAGCKLGGDAAVQGLGYLNEIVKRGNPDNEVTMADYTLDRVLDERSKELVGEGHRFFDLLRNGKTIVRKGGYHLPSVDEEVDWDFYKCVLPIPEDQFIFSPEMEQNPGYPKN”, the “soluble on expression in E. coli” value was “not soluble”. For “MGSDKIHHHHHHNQFSVKCWLRYIEFKQGAPKPRLNQLYERALKLLPCSYKLWYRYLKARRAQVKHRCVTDPAYEDVNNCHERAFVFMHKMPRLWLDYCQFLMDQGRVTHTRRTFDRALRALPITQHSRIWPLYLRFLRSHPLPETAVRGYRRFLKLSPESAEEYIEYLKSSDRLDEAAQRLATVVNDERFVSKAGKSNYQLWHELCDLISQNPDKVQSLNVDAIIRGGLTRFTDQLGKLWCSLADYYIRSGHFEKARDVYEEAIRTVMTVRDFTQVFDSYAQFEESMIAAKMETASELGREEEDDVDLELRLARFEQLISRRPLLLNSVLLRQNPHHVHEWHKRVALHQGRPREIINTYTEAVQTVDPFKATGKPHTLWVAFAKFYEDNGQLDDARVILEKATKVNFKQVDDLASVWCQCGELELRHENYDEALRLLRKATALPARRAEYFDGSEPVQNRVYKSLKVWSMLADLEESLGTFQSTKAVYDRILDLRIATPQIVINYAMFLEEHKYFEESFKAYERGISLFKWPNVSDIWSTYLTKFIARYGGRKLERARDLFEQALDGCPPKYAKTLYLLYAQLEEEWGLARHAMAVYERATRAVEPAQQYDMFNIYIKRAAEIYGVTHTRGIYQKAIEVLSDEHAREMCLRFADMECKLGEIDRARAIYSFCSQICDPRTTGAFWQTWKDFEVRHGNEDTIKEMLRIRRSVQATYNTQVNFMASQMLKVSGSATGTVSDLAPGQSGMDDMKLLEQRAEQLAAEAERDQPLRAQSKILFVRSDASREELAELAQQVNPEEIQLGEDEDEDEMDLEPNEVRLEQQSVPAAVFGSLKED”, the “soluble on expression in E. coli” value was “not soluble”. With “MGSDKIHHHHHHPEQIEKYPSIYPDYIGVTIPATIAPMNFSYTDTSYERIDVIVKGHQGKEVHINAKHVNFPEKEWKQLLNSNQGDSLLFTVSIKQKGKWSTYKPFPMYISPHPIDYGLVYRKIAPGYEVYSRMGIYERDLSSHKERPLVENTLVKGMCVNCHAFNRTDPSHFSLHIRGTHGATFMRTGNKDEYLNTKTDQTIAACVYPYWHPGGEYIAYSTNNTRQSFHTVKDERVEVLDLESDVVVYHPADHHLLLCDSLQKKDRFETFPAFSPDGRTLYFCSAEAKKIPEEYKEIRYNLCSIDFDPSTGTFGSRIDTLVNAEALGKSVSFPRPSYDGKYIMFTLSDYGNFSIWHKEANLWLLDLTSGDLRELSEVNSDDTESFHNWSSNSRWFVFSSRRGDGLYTRLYLASMDENGKISKPFLLPQEDPETYYDRSVYSYNVPDFVNAPILLDTKVFEKRITSKERIQVQVGN” the “soluble on expression in E. coli” value was “not soluble”. With “MGSDKIHHHHHHQAEPAPLASAGPAANDPLEGFNRASFKLGMGLDRALLAPITHGYMAVTPRVVRDRVSLVIYNMGEPNTVMNQVLQGKPRQAVRSSTRFVVNSTVGVAGLFDVAAKMGLPPRGADFGQTFGRWGAGPGAYIYVPLMGPLNVRDGVGRALDIVTDPVSLFVGGLDTDFGRARTAITVVDLRATTDSAYEALKDASDPYVTTRSAYAQYREAFVREATGESEALPDFDAPPSEPNTSSATPNP” the “soluble on expression in E. coli” value was “not soluble”. With “MGSDKIHHHHHHQNTPIGENIELAGENPEELKVIYINKDVSTHFIAMEDIKYVDISVNDIVGDIPTGNSLRIKPTKEGASGVITIVTERFFVQYMLVYSSDLAKAYTRFNIPYADLRSYMNPEVNLTKAQMYDYAHRMFISKNKFYDVSSTSNLMKIVLNNIYTLDKYFFIDISMINKTKIRYDIDQIRFKIEDKKQTKATNFQSIEILPLMQVNKNLVFKKNYRNIFVFEKFTFPDEKVLTIEISEKQISGRTITLRIDYADILHADAFTE” the “soluble on expression in E. coli” value was “not soluble”. For “MGSDKIHHHHHHRNGKTYTQPLTGQATDKIGEQIRELFNIDINPNGPAVKANNYVSTYMKRLYKQLENYEHGENHNEEEVNAWLSADRIVSHMAQEVSHRLDDGSYSIRFAKEHVPAKEGQSIVRAQLRIHIQGIVSPVFFYIEDTNLPGDTVLVSSDDPTVVTDVTTMVDRWSHLQLSTLPIVTARASTNDELKIEAFLVIALKDEDAGPPKKRSR”, the “soluble on expression in E. coli” value was “not soluble”. In the case of “MGSDKIHHHHHHSCDNKGDYWGAMESSKATLTLERICDMATLSQDSVELLSNILGMNTEELYRTDVVMIGKVTSEETGFYQYPRFLIAKDREMKEVLTEAYVHRDTEGTFYAFLESNMLPVGETYYCAMVDYNYGYNGRPGLLDHVLGGNTRGERYSEVKPFRLSGLPRLVVHDAHFTGYSFYLSAEVRFKSNGGIIEQGACYSSTKRIPTVDDQKTLARETRNYDYSFLEVEVTDLLPNTHYYIRPYVTTEEGTGYGPVVEFTTEPGTEPIIDYFTMYIDTDRSVNLYATFYIDNYQITHYGYSYGIYSPETGTVTDEQKIEVPLEDNHGQQLSKVITGLRPGILYAFRVYAENGVGVTYSGYQTVKIPVE”, the “soluble on expression in E. coli” value is reported as “not soluble”. In the case of “MGSDKIHHHHHHSDLNSNIKDDPYSGGKAPLGIGLLAESPSPESAYPNDTVVFKAKGMLNWCDPQSGRYDFKFYISDEETKIVTATDTTITVKVPGNLSSGTAYIVLKEQVFYGPRLTVLGNIKIDQSYGFKGTSGPIYDCAEHYSKARVYYPVGDYMQAYYNENSSQSFSCISMVLTDGSVSGKWVTDFKLDPGQGAGIDLANPGVTDIECYLNSFTYFPSDHRVLLSGKFSEYGWDKLPVNNITIATNEVASYYKTVALPSKKNNTSINCKIPVFNGGTLEAPVRTFITSNEKVVAVGNITNYCRINTEKSYAESMVLDYSKVASVLRMSRTGELDDSYRRDAEGVIGQILDACMVESDGIVIVGTFSSFDGQSVKNIVKLNAEGTLDETFMKNIGTGANGSITKIRYNKNKKKILITGEFSEFNGIPAQSVVMLNDDGTRDEIFKIGKMEGGLANFACLLDNDNIVVSGAFTKYDGVTRRGFLILGRDGKALQQFNVPGIFQGELYKVIETRTSTNSNGLLLLGDFSRFDGNMVRNAIMIEVDYE”, the “soluble on expression in E. coli” value is reported as “not soluble”. In the case of “MGSDKIHHHHHHSGEKKESASEKGVETVLPDTKNEVSVMTLKKQIFNHELVSNGKISARGMADLRFESGEVIAHIWVKNGDRVRKGQKLAELDKFKLDNQLSQSEDALKKSELELRDVLISQGYPADDISQVPEETMKLAKVKSGYDQSKSQYEMSKYNAEHATLTAPFDGVVANLFSKPYNLASTSDVFCTVIDMQGMEVDFTVLESELPLIKNGDKVVIKPYSDAATVHEGSISEINPLVDDKGMVKVKARVNGAGKLFSGMNVRVSVHRSLGEQLVIPKSAVVLRSGKQVVFTLKDGKMAQWNYIHTALENADSYSVADGLTEGDTVIVSGNINLAHEAPVTIIE”, the “soluble on expression in E. coli” value is reported as “not soluble”. For “MGSDKIHHHHHHTDDEEKDNNGQGSVSVETNYLPIADPYVMFYNNKYYAYGTGGTTAGEGFACFSSDDLKNWKREGQALSATDSYGTWGFWAPEVYYVESKKKFYLFYSAEEHICVATSTTPEGPFRQEVKQPIWSEKSIDTSLFIDDDGTPYLYFVRFTDGNVIWVAQMTDDLMSIKTETLNQCIKAEVSWELLQGKVAEGPSLLKKNGVYYLIYSANHYENKGYGVGYATSDTPMGPWVKYSKNPLLQGDAATGLVGTGHGAPFQCKDGSWKYIFHAHWSAAEIQPRTSYIKDFAISDQGVVTISGTVIKPRVLK”, the “soluble on expression in E. coli” value was “not soluble”.
